Molecular target: T1, full-length human CLEC9A on transfected 293F cells (human, UniProt Q6UXN8 1-241)
T1 construct: also called cell surface CLEC9A
Test: flow cytometry on 293F cells transfected with full-length human CLEC9A

T1 sequence (Q6UXN8 whole entry): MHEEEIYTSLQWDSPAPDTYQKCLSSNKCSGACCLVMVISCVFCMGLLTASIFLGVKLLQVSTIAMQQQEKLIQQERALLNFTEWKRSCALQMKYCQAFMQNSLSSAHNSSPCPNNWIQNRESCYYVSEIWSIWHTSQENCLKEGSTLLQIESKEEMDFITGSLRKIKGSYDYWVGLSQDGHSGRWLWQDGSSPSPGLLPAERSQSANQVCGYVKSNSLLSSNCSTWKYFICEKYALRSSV

| Binder | binding result |
| --- | --- |
| humanised anti-CLEC9A Ab (Ab1) (antibody, human IgG4 S228P, kappa, V domains shown, Human IgG4 / kappa; also called Humanised CLEC9A Ab; humanised anti-CLEC9A antibody) VH: EVQLLESGGGLVQPGGSLRLSCAASGFTFNNYWLAWVRQAPGKGLEWVASITTAAGGTYYPDSVKGRFTISRDNSKNTLYLQMNSLRAEDTAVYYCTRVGRDIWDYWGQGTLVTVSS VL: DIVMTQTPLSLSVTPGQPASISCKSSQSLLHSDGNTYLHWYLQKPGQPPQLLIWRISNRFSGVPDRFSGSGSGTDFTLKISRVEAEDVGVYYCLQSSHFPPTFGGGTKVEIKR | binds |
| human/rat chimaeric anti-CLEC9A Ab (clone 4C6) (antibody, V domains shown, also called human chimeric anti-Clec9A Ab; original human chimaeric anti-CLEC9A Ab) VH: EVQLVESGGGLVQPGGSLKLSCVASGFTFNNYWLAWIRQAPRKGLEWVASITTAAGGTYYPDSVKGRFTISRDNAKSTLYLQMNSLTSEDTATYYCTRVGRDIWDYWGQGVVVTVSS VL: EILMTQTPVSLPVSLGGQVSFSCRSSQSLLHSDGNTYLHWYLQKPGQSPQLLIWRISNRFSGVPDRFSGSGSGTDFTLKISRVEPEDLGVYYCLQSSHFPPTFGGGTNLEIKR | binds |
